This is an account of results in US20240261333A1, “NOVEL TARGETS FOR ENHANCING ANTI-TUMOR IMMUNITY” (THE BROAD INSTITUTE, INC., priority 2021, published 2024).

The target of this assay is T1, B3GNT2 (Homo sapiens, UniProt Q9NY97).
T1 construct: The respective ORFs of candidate genes [CD274 (NM_014143), MCL1 (NM_021960), JUNB (NM_002229), and B3GNT2 (NM_006577)] were synthesized; expressed in transfected cells; host or cells: A375 melanoma cells (lentiviral ORF overexpression)
T1 sequence (Q9NY97 1-397): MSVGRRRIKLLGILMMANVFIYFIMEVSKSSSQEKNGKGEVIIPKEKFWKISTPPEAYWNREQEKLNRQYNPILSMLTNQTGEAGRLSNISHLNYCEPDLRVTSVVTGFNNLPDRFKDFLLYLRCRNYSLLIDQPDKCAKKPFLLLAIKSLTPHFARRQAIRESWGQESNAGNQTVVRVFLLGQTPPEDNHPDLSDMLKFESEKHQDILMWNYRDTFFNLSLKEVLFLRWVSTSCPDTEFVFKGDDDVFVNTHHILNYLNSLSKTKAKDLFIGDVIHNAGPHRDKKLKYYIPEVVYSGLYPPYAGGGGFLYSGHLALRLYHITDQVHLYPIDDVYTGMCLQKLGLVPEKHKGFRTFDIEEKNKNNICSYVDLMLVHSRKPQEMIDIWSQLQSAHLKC
The experiment in a line: Co-IP of FLAG-tagged B3GNT2 followed by mass spectrometry. The assay is classed as cell-based. More on the design: C-term IgG / C-term flag: unit not given here. A digest of the protocol:
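Co-purifying proteins were identified by fractionated nano-LC–MS/MS on an Orbitrap Elite, run data-dependent. Beforehand, lysates in 1% Triton X-100/HEPES buffer were incubated overnight at 4° C with anti-FLAG or […] and pulled down on Protein A/G magnetic beads for 4 h. Duplicate biological replicates.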

B1: PDIA3 (protein)
chain: SDVLELTDDNFESRISDTGSAGLMLVEFFAPWCGHCKRLAPEYEAAATRLKGIVPLAKVDCTANTNTCNKYGVSGYPTLKIFRDGEEAGAYDGPRTADGIVSHLKKQAGPASVPLRTEEEFKKFISDKDASIVGFFDDSFSEAHSEFLKAASNLRDNYRFAHTNVESLVNEYDDNGEGIILFRPSHLTNKFEDKTVAYTEQKMTSGKIKKFIQENIFGICPHMTEDNKDLIQGKDLLIAYYDVDYEKNAKGSNYWRNRVMMVAKKFLDAGHKLNFAVASRKTFSHELSDFGLESTAGEIPVVAIRTAKGEKFVMQEEFSRDGKALERFLQDYFDGNLKRYLKSEPIPESNDGPVKVVVAENFDEIVNNENKDVLIEFYAPWCGHCKNLEPKYKELGEKLSKDPNIVIAKMDATANDVPSPYEVRGFPTIYFSPANKKLNPKKYEGGRELSDFISYLQREATNPPVIQEEKPKKKKKAQEDL
As to B1, the C-term flag (Co-IP with FLAG antibody, C-terminally FLAG-tagged B3GNT2, mass spectrometry count, unit not given) came to 24. Besides, the “N-term FLAG” value (Co-IP with FLAG antibody, N-terminally FLAG-tagged B3GNT2, mass spectrometry count, unit not given) is on record as 14. Under “Co-IP with IgG control antibody, C-terminally FLAG-tagged B3GNT2, mass spectrometry count, unit not given”, the “C-term IgG” value amounted to 0. Also, the “N-term IgG” value (Co-IP with IgG control antibody, N-terminally FLAG-tagged B3GNT2, mass spectrometry count, unit not given) is listed as 0.

B2: MAP4 (protein, UniProt P27816 2-1152, looked up)
Microtubule-associated …: ADLSLADALTEPSPDIEGEIKRDFIATLEAEAFDDVVGETVGKTDYIPLLDVDEKTGNSESKKKPCSETSQIEDTPSSKPTLLANGGHGVEGSDTTGSPTEFLEEKMAYQEYPNSQNWPEDTNFCFQPEQVVDPIQTDPFKMYHDDDLADLVFPSSATADTSIFAGQNDPLKDSYGMSPCNTAVVPQGWSVEALNSPHSESFVSPEAVAEPPQPTAVPLELAKEIEMASEERPPAQALEIMMGLKTTDMAPSKETEMALAKDMALATKTEVALAKDMESPTKLDVTLAKDMQPSMESDMALVKDMELPTEKEVALVKDVRWPTETDVSSAKNVVLPTETEVAPAKDVTLLKETERASPIKMDLAPSKDMGPPKENKKETERASPIKMDLAPSKDMGPPKENKIVPAKDLVLLSEIEVAQANDIISSTEISSAEKVALSSETEVALARDMTLPPETNVILTKDKALPLEAEVAPVKDMAQLPETEIAPAKDVAPSTVKEVGLLKDMSPLSETEMALGKDVTPPPETEVVLIKNVCLPPEMEVALTEDQVPALKTEAPLAKDGVLTLANNVTPAKDVPPLSETEATPVPIKDMEIAQTQKGISEDSHLESLQDVGQSAAPTFMISPETVTGTGKKCSLPAEEDSVLEKLGERKPCNSQPSELSSETSGIARPEEGRPVVSGTGNDITTPPNKELPPSPEKKTKPLATTQPAKTSTSKAKTQPTSLPKQPAPTTIGGLNKKPMSLASGLVPAAPPKRPAVASARPSILPSKDVKPKPIADAKAPEKRASPSKPASAPASRSGSKSTQTVAKTTTAAAVASTGPSSRSPSTLLPKKPTAIKTEGKPAEVKKMTAKSVPADLSRPKSTSTSSMKKTTTLSGTAPAAGVVPSRVKATPMPSRPSTTPFIDKKPTSAKPSSTTPRLSRLATNTSAPDLKNVRSKVGSTENIKHQPGGGRAKVEKKTEAAATTRKPESNAVTKTAGPIASAQKQPAGKVQIVSKKVSYSHIQSKCGSKDNIKHVPGGGNVQIQNKKVDISKVSSKCGSKANIKHKPGGGDVKIESQKLNFKEKAQAKVGSLDNVGHLPAGGAVKTEGGGSEAPLCPGPPAGEEPAISEAAPEAGAPTSASGLNGHPTLSGGGDQREAQTLDSQIQETSI
Consider B2, for which the C-term flag (Co-IP followed by mass spectrometry of B3GNT2, C-term tag, FLAG pull-down) is given as 5. For the setting “Co-IP followed by mass spectrometry of B3GNT2, C-term tag, IgG pull-down”, the “C-term IgG” value stood at 0. Further, under “Co-IP followed by mass spectrometry of B3GNT2, N-term tag, FLAG pull-down”, the “N-term FLAG” value amounted to 0. Also, the “N-term IgG” value (Co-IP followed by mass spectrometry of B3GNT2, N-term tag, IgG pull-down) is given as 0.
